Source: the supplement of paper PMC10724198
± gives the standard deviation of the averaged measurements.
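Further: PSI is a weighted mean of sequencing reads over stability bins, variants kept only with over 10 reads, mCherry proximal and sfGFP distal, peptide attached via GGGS linker.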

What follows are sequences tested on Saccharomyces cerevisiae (assay: protein stability index of tFT-peptide fusion (C-terminal peptide) (PSI (0-1 scale)); higher = more stable (slower turnover)). Details: genetic background: wild type; temperature: 30 C.
Sequence RLRKEKGKKIQY has a protein stability index of 0.697 ± 0.073.
Work on RLRPLSPPTLCD yielded a protein stability index of 0.665 ± 0.044.
For RLRRLYSLRTYL, the protein stability index was 0.543 ± 0.033.
For RLTSPPYSFFLH, the protein stability index was 0.644 ± 0.019.
RLVHSRPPPFAS showed a protein stability index of 0.794 ± 0.13.
In the case of RMRRAHCQQSGG, the protein stability index is reported as 0.6537 ± 0.0037.
Work on RNEDYQKKRKGK yielded a protein stability index of 0.701 ± 0.022.
RNIRGDYKGRRL showed a protein stability index of 0.6455 ± 0.0019.
For RNKHREEIERQT, the protein stability index was 0.672 ± 0.031.
Sequence RNKKDIKIQIKR has a protein stability index of 0.68 ± 0.049.
Sequence RNKKIKKKKGRN has a protein stability index of 0.701 ± 0.069.
RNKRPDQRERKQ showed a protein stability index of 0.692 ± 0.17.
RNLHVSMGKCSP showed a protein stability index of 0.722 ± 0.21.
RNLRCDIVNVYP showed a protein stability index of 0.759 ± 0.015.
For RNRLTTMCRHLE, the protein stability index was 0.655 ± 0.062.
RNRNDRIKKLKR gave a protein stability index of 0.667 ± 0.014.
RPAAPGSKGDDN showed a protein stability index of 0.7 ± 0.043.
For RPAGGPRGGEGV, the protein stability index was 0.648 ± 0.058.
RPAMSPPPLCPP showed a protein stability index of 0.625 ± 0.027.
RPASVHDLSLQC gave a protein stability index of 0.681 ± 0.033.
RPCDLISGFCGL showed a protein stability index of 0.695 ± 0.012.
RPDSPSPLPPPP gave a protein stability index of 0.637 ± 0.028.
With RPELRRETARVR the protein stability index was 0.644 ± 0.038.
In the case of RPEVRTGPASTH, the protein stability index is reported as 0.676 ± 0.032.
RPFLLWRVVTPL gave a protein stability index of 0.611 ± 0.016.
In the case of RPGLCLTFFSAH, the protein stability index is reported as 0.666 ± 0.032.
With RPGSWINEITKE the protein stability index was 0.69944 ± 0.00024.
RPKVSRIKENKY showed a protein stability index of 0.727 ± 0.02.
RPLPLRLDGSGS showed a protein stability index of 0.719 ± 0.047.
Work on RPLPPPPAPPPL yielded a protein stability index of 0.706 ± 0.029.
For RPLSPPSAPTSF, the protein stability index was 0.679 ± 0.0055.
With RPLTSVTPLPTL the protein stability index was 0.6988 ± 0.0067.
Sequence RPLVYIKHLALL has a protein stability index of 0.44 ± 0.17.
RPNTVHLQALYN was tested, and the protein stability index was 0.6802 ± 0.0046.
In the case of RPNWSRFTSIYA, the protein stability index is reported as 0.653 ± 0.016.
Work on RPPINRLCPWLL yielded a protein stability index of 0.671 ± 0.032.
RPPLIPAALLFL gave a protein stability index of 0.589 ± 0.048.
Work on RPPLLPPLDAPS yielded a protein stability index of 0.713 ± 0.027.
Sequence RPPLPPPPPLPP has a protein stability index of 0.578 ± 0.03.
RPPPPRPRSLLS gave a protein stability index of 0.654 ± 0.097.
For RPPPRSPPLPRL, the protein stability index was 0.806 ± 0.03.
Sequence RPPPSAIPPPSP has a protein stability index of 0.6274 ± 0.0014.
For RPPTASPLVAPA, the protein stability index was 0.655 ± 0.0067.
For RPRCAPSPPLPP, the protein stability index was 0.691 ± 0.047.
Work on RPSLEKQETEKT yielded a protein stability index of 0.696 ± 0.056.
RPSLSRSSLLSP showed a protein stability index of 0.701 ± 0.032.
RPTSPCPNHRLE gave a protein stability index of 0.667 ± 0.097.
Sequence RQCGKGGKEGAA has a protein stability index of 0.653 ± 0.051.
In the case of RQFVTACPLWRH, the protein stability index is reported as 0.676 ± 0.046.
RQQKTNERRPRT gave a protein stability index of 0.648 ± 0.04.
For RQWAISRRWVVR, the protein stability index was 0.562 ± 0.021.
For RQYCTRDHNIIK, the protein stability index was 0.732 ± 0.025.
With RRAGGARGKTSE the protein stability index was 0.645 ± 0.014.
Work on RRAGRGGIGKGG yielded a protein stability index of 0.591 ± 0.018.
For RRDLKNVRLPDR, the protein stability index was 0.675 ± 0.055.
RRESAGFGLVWG was tested, and the protein stability index was 0.709 ± 0.017.
For RRFPYGPFDFSI, the protein stability index was 0.6645 ± 0.0049.
Sequence RRGCTKYGSYII has a protein stability index of 0.696 ± 0.082.
RRGCYLFTPRPG was tested, and the protein stability index was 0.648 ± 0.015.
For RRGLRVTETPVR, the protein stability index was 0.772 ± 0.011.
Work on RRGWRRGGLGNG yielded a protein stability index of 0.683 ± 0.052.
Work on RRHGDVGFGVGW yielded a protein stability index of 0.82 ± 0.1.
RRHPRLPSLSGL was tested, and the protein stability index was 0.651 ± 0.044.
With RRIVAPYSGEAA the protein stability index was 0.774 ± 0.013.
RRKEEEGKEVRK gave a protein stability index of 0.666 ± 0.01.
For RRMDGHLRELPA, the protein stability index was 0.685 ± 0.058.
RRNARRARARWR gave a protein stability index of 0.637 ± 0.065.
For RRNPTCPSGTQK, the protein stability index was 0.7 ± 0.021.
For RRPFPSSVVFPH, the protein stability index was 0.702 ± 0.023.
In the case of RRPRIANIETDY, the protein stability index is reported as 0.678 ± 0.0046.
Sequence RRRGRGAVGATR has a protein stability index of 0.716 ± 0.073.
With RRRLLCVCDLMM the protein stability index was 0.576 ± 0.038.
In the case of RRSCSMQISSRN, the protein stability index is reported as 0.642 ± 0.045.
RRSLSVYPRFRT was tested, and the protein stability index was 0.714 ± 0.037.
RRSRFSGACLLM was tested, and the protein stability index was 0.773 ± 0.13.
For RRTRRSTGHATG, the protein stability index was 0.665 ± 0.043.
RRTSPNKNLKNQ gave a protein stability index of 0.618 ± 0.097.
Work on RRVPTDQYRLLE yielded a protein stability index of 0.696 ± 0.027.
For RRVYGRELHPSQ, the protein stability index was 0.731 ± 0.029.
RRWATGGVIGGR was tested, and the protein stability index was 0.677 ± 0.0074.
RSALVPPRLPAS showed a protein stability index of 0.675 ± 0.075.
Sequence RSCAHATLAYVP has a protein stability index of 0.771 ± 0.082.
Work on RSDCLIDSRMVD yielded a protein stability index of 0.694 ± 0.094.
In the case of RSDRDGPPRGDS, the protein stability index is reported as 0.719 ± 0.087.
For RSFPPPPARSLP, the protein stability index was 0.711 ± 0.039.
RSGCGYCLVRLG was tested, and the protein stability index was 0.541 ± 0.0007.
Sequence RSGGSSPRRLFT has a protein stability index of 0.7 ± 0.0095.
Sequence RSHAHTRNGSSA has a protein stability index of 0.675 ± 0.022.
In the case of RSHLLPPPRHQH, the protein stability index is reported as 0.7333 ± 0.00099.
With RSLGGGVGARFV the protein stability index was 0.695 ± 0.037.
Work on RSLSPPPASPIP yielded a protein stability index of 0.6755 ± 0.0051.
For RSLYGLMNPPRG, the protein stability index was 0.71 ± 0.011.
RSNLGLNLVLAI was tested, and the protein stability index was 0.591 ± 0.031.
Sequence RSNNKFAKPIQY has a protein stability index of 0.663 ± 0.11.
Work on RSPHLPTARSSQ yielded a protein stability index of 0.723 ± 0.018.
RSPLPHPPPHSY gave a protein stability index of 0.612 ± 0.054.
In the case of RSPPLEPTLDPL, the protein stability index is reported as 0.785 ± 0.1.
In the case of RSPTRHAPPRPV, the protein stability index is reported as 0.639 ± 0.095.
Work on RSRDDAGASLHL yielded a protein stability index of 0.6666 ± 0.0054.
With RSRKICYREEKR the protein stability index was 0.644 ± 0.029.
Sequence RSSDRGDVRATC has a protein stability index of 0.689 ± 0.062.
Work on RSSGHQIRDKSA yielded a protein stability index of 0.74 ± 0.022.
Work on RSSNNQRARPPQ yielded a protein stability index of 0.627 ± 0.028.
Sequence RSSYTLLLPPLR has a protein stability index of 0.624 ± 0.0074.
For RSTGGHGSQAGR, the protein stability index was 0.711 ± 0.04.
RSTRDKTRLAKD gave a protein stability index of 0.743 ± 0.11.
Sequence RSTRLPGFNRRE has a protein stability index of 0.662 ± 0.0062.
Work on RSTTDVADNSRP yielded a protein stability index of 0.631 ± 0.032.
RSWVGVEWVGGM was tested, and the protein stability index was 0.595 ± 0.094.
Sequence RTDTKPTGEHEA has a protein stability index of 0.694 ± 0.045.
With RTFKYERNLEVY the protein stability index was 0.596 ± 0.046.
RTFTLCSPSPCA gave a protein stability index of 0.645 ± 0.059.
RTPAPENPPTSP gave a protein stability index of 0.609 ± 0.06.
RTPYFGPLAQIA showed a protein stability index of 0.622 ± 0.023.
RTQGVWYHGVRR gave a protein stability index of 0.745 ± 0.071.
With RTQRGRMVGEQG the protein stability index was 0.732 ± 0.11.
RTQYEVGVGTGG was tested, and the protein stability index was 0.692 ± 0.021.
For RTRAPSKHAPER, the protein stability index was 0.841 ± 0.16.
In the case of RTSLRYLKRVER, the protein stability index is reported as 0.669 ± 0.076.
With RTSQLVSRATLD the protein stability index was 0.691 ± 0.019.
RTSRKKMLNFKY was tested, and the protein stability index was 0.66688 ± 0.00034.
With RTSYIKNQKKKG the protein stability index was 0.699 ± 0.013.
RTTKRNDYLSHI gave a protein stability index of 0.699 ± 0.08.
In the case of RVALVCGLGCIF, the protein stability index is reported as 0.683 ± 0.029.
RVEELKFKNLII gave a protein stability index of 0.6633 ± 0.004.
RVFLAVCYGCRV showed a protein stability index of 0.5659 ± 0.0034.
In the case of RVGLCGSSLGVI, the protein stability index is reported as 0.742 ± 0.078.
Sequence RVIPRTRISLLS has a protein stability index of 0.575 ± 0.0075.
With RVLASVGCYLFW the protein stability index was 0.641 ± 0.015.
RVLKIIGFITYA showed a protein stability index of 0.56 ± 0.034.
With RVLLLTGAFELV the protein stability index was 0.585 ± 0.028.
RVLWGTESFIDL showed a protein stability index of 0.7383 ± 0.0048.
Work on RVMGDAAGCGGV yielded a protein stability index of 0.707 ± 0.062.
Sequence RVRRAGSGWCGK has a protein stability index of 0.729 ± 0.0073.
With RVSLELEIIPPS the protein stability index was 0.706 ± 0.05.
With RVSLGHGRAFWP the protein stability index was 0.711 ± 0.083.
RVSPGGLCALSV was tested, and the protein stability index was 0.701 ± 0.051.
RVSVGGSVRLFG was tested, and the protein stability index was 0.711 ± 0.04.
Sequence RVSWRLSYLCPV has a protein stability index of 0.694 ± 0.14.
With RVTLWDGSRSRI the protein stability index was 0.711 ± 0.017.
Sequence RVTNLQSRHTLH has a protein stability index of 0.692 ± 0.023.
Sequence RVVEFGFGGCHW has a protein stability index of 0.758 ± 0.061.
RVVEPKWDWRRG gave a protein stability index of 0.68 ± 0.032.
RVVGGWGEAWRE was tested, and the protein stability index was 0.744 ± 0.0091.
In the case of RVVPTKTIAGSA, the protein stability index is reported as 0.6502 ± 0.0014.
For RVVWVWLMSALF, the protein stability index was 0.54 ± 0.034.
